Experimental data as given in patent US6562587 (ASTRA PHARMA, dated 2003).
Non-standard residues stand in square brackets, D forms with d. No end group written: not given here.

B1: Tyr-D-Thr-Gly-Phe-Leu-Thr (DTLET), labelled with tritium (peptide)
peptide: Y[dT]GFLT
modifications: not fully specified
notes: Synthetic delta-selective enkephalin analogue used as the radioligand; also called ^3H-DTLET

Experiments:
[1] = biological target: delta opioid receptor naturally expressed by NG 108-15 cells (UniProt P32300); assay: Table 1, NG 108-15 column (method not described)
[2] = biological target: T1, K56 receptor (mouse delta opioid receptor encoded by clone K56) (mouse, UniProt P32300 1-372); assay: radioligand binding, 1 nM ^3H-DTLET on monolayer Cos-1 cells transfected with K56
T1 construct: Expressed transiently in Cos-1 cells from plasmid pCDM8-K56; 371 amino acids; also called K56 protein; Cos K56

| Molecule | PKi [1] | signal over background [2] |
| --- | --- | --- |
| cyclic [D-penicillamine^2, D-penicillamine^5]-enkephalin (peptide) | 8.3 |  |
| B1 |  | 6 fold |
